The source of these data is article PMC5538626 (EMBO Reports, 2017).

Common to all, as to conditions: both partners purified
One assay concerns the target T1, 6xHis-tagged GABARAP-L1 (human, UniProt Q9H0R8 1-117).
T1 construct: GABARAP-L1, human; also called HIS6-GABARAP-L1; source: isolated from E. coli
The experiment in a line: peptide or protein array; biotinylated peptides immobilised on streptavidin-coated 96-well plates, 1 uM His6-tagged mATG8 in PBS, 0.1% Tween-20, 1% BSA, 1 h at 8 C, detected with anti-His-HRP and TMB at 450 nm; expressed relative to the WT LIR peptide.

Assay [1] addresses T2, GABARAP (for ITC and NMR) (human, UniProt O95166 1-117).
T2 construct: GABARAP, human; source: E. coli NEB T7 Express, purified
The experiment in a line: ITC; peptide 0.4 mM titrated into 0.020 mM LC3/GABARAP protein in 26 steps, 25°C; 50 mM Na2HPO4, 100 mM NaCl, pH 7.0; one-site model.

Assay [2] concerns the target T3, GABARAP‐L1 (for ITC and NMR) (human, UniProt Q9H0R8 1-117).
T3 construct: GABARAP-L1, human; 15N-labelled for NMR; source: E. coli NEB T7 Express, purified
The description is as above.

For assay [3], the target named is T4, GABARAP‐L2 (for ITC and NMR) (human, UniProt P60520 1-117).
T4 construct: GABARAP-L2/GATE-16, human; 15N-labelled for NMR; also called GATE‐16; source: E. coli NEB T7 Express, purified
T4 sequence (P60520 whole entry): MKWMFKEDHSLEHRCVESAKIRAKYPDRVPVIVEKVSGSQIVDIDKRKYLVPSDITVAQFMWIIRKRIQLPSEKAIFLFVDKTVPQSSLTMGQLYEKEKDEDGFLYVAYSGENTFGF
Described as above.

A further assay has as its target T5, LC3A (for ITC and NMR) (human, UniProt Q9H492 1-121).
T5 construct: LC3A, human; 15N-labelled for NMR; also called MAP1LC3A; source: E. coli NEB T7 Express, purified
The assay is described as above.

Another assay concerns the target LC3B (for ITC and NMR) (human, UniProt Q9GZQ8 1-120). Described as above.
Another assay concerns the target T6, LC3C (for ITC) (human, UniProt Q9BXW4 1-126).
T6 construct: LC3C, human; source: E. coli NEB T7 Express, purified
Described as above.

In the next assay the target is LC3B K30R (human, UniProt Q9GZQ8 1-120, K30R). The experiment in a line: ITC; peptide at 0.4 mM titrated into 0.020 mM LC3B or GABARAP protein in 26 steps, 25 C, VP-ITC, one-site model; 50 mM Na2HPO4, 100 mM NaCl, pH 7.0.
For the next assay, the target named is T7, GABARAP R28K (human, UniProt O95166 1-117, R28K).
T7 construct: GABARAP, human, with R28K; also called GABARAP R28K mutant
T7 sequence (O95166 whole entry R28K): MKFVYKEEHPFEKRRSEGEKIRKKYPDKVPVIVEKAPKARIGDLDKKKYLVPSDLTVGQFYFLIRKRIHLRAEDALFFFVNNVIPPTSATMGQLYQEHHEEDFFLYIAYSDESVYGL
Described as above.

The target of another assay is T8, 6xHis-tagged GABARAP (human, UniProt O95166 1-117).
T8 construct: GABARAP, human; also called HIS6-GABARAP; source: isolated from E. coli
T8 sequence (O95166 whole entry): as the sequence (O95166 whole entry R28K) above, with K28R counted along it
Kind of assay: peptide or protein array; biotinylated peptides immobilised on streptavidin-coated 96-well plates, 1 uM His6-tagged mATG8 in PBS, 0.1% Tween-20, 1% BSA, 1 h at 8 C, detected with anti-His-HRP and TMB at 450 nm; expressed relative to the WT LIR peptide.

Ends that are not written are not given here.

T6 sequence (Q9BXW4 1-126): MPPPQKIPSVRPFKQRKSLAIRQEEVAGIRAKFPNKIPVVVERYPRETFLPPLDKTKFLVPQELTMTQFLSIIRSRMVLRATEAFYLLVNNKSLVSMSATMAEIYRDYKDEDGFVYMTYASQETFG
T3 sequence (Q9H0R8 whole entry): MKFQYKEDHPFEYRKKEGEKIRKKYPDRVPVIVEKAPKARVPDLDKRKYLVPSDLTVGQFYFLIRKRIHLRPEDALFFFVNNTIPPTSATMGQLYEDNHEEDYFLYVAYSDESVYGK
T2 sequence (O95166 whole entry): as the sequence (O95166 whole entry R28K) above, with K28R counted along it
T1 sequence (Q9H0R8 whole entry, looked up): as the sequence (Q9H0R8 whole entry) above

B1: Biotinylated PLEKHM1-LIR V636L peptide (peptide)
peptide: EDEWLNVQY
modifications: also: biotinylated, position not given here
notes: also called V636X with X = L; L in position X1; source: synthetic peptide, bought: JPT, Germany
For B1, the binding result in the assay with 6xHis-tagged GABARAP-L1 is given as “binds”.

B2: PLEKHM1‐LIR peptide (GAMG‐P^629QQEDEWVNVQYPD^642) (peptide)
peptide: GAMGPQQEDEWVNVQYPD
notes: cloning artefact left after TEV cleavage; PLEKHM1 LIR, residues 629-642; 13C,15N- or 15N-labelled for some NMR experiments; also called PLEKHM1‐LIR WT; source: E. coli NEB T7, as Ub63 fusion, TEV-cleaved, purified (Ni-NTA, reverse Ni-NTA, gel filtration)
For B2, the Ka turned out to be 1.8e+06 M⁻¹ in assay [1]; 1.3e+06 M⁻¹ in assay [2]; 1.07e+06 M⁻¹ in assay [3]; 240000 M⁻¹ in the assay with LC3A (for ITC and NMR); 160000 M⁻¹ with LC3B (for ITC and NMR); 290000 M⁻¹ with LC3C (for ITC). Besides, the dissociation constant Kd in assay [1] worked out at 550 nM; in assay [2] it was 770 nM; in [3], 930 nM; in the assay with LC3A (for ITC and NMR), 4220 nM; with LC3B (for ITC and NMR), 6330 nM; with LC3C (for ITC), 3450 nM. For the same molecule, the dH was -10.6 ± 0.1 kcal/mol in assay [1]; -7.8 ± 0.1 kcal/mol in assay [2]; -6.1 ± 0.1 kcal/mol in assay [3]; -7 ± 0.2 kcal/mol in the assay with LC3A (for ITC and NMR); -5.8 ± 0.2 kcal/mol in the assay with LC3B (for ITC and NMR); -8.3 ± 0.2 kcal/mol in the assay with LC3C (for ITC). Moreover, the “stoichiometry N” value in assay [1] was 1 ± 0.01; in [2] it was 1 ± 0.01; in assay [3], 1.05 ± 0.01; in the assay with LC3A (for ITC and NMR), 0.98 ± 0.02; in the assay with LC3B (for ITC and NMR), 1.06 ± 0.01; in the assay with LC3C (for ITC), 0.99 ± 0.02.

B3: PLEKHM1-LIR peptide (GAMG-P629QQEDEWVNVQYPD642) (peptide)
peptide: GAMGPQQEDEWVNVQYPD
notes: cloning artefact left after TEV cleavage; PLEKHM1, LIR region, residues 629-642; Used non-labelled in ITC and in the LC3C co-crystal, 15N-labelled in the NMR titrations with non-labelled proteins; The Appendix (D1:p2) calls the ITC peptide 'synthetic', the methods describe the recombinant preparation; also called PLEKHM1-LIR WT; PLEKHM1 629-642; source: E. coli NEB T7, expressed as …
Take B3: in the assay with LC3B K30R, the Ka was determined as 190000 M⁻¹, binding was put at a Kd of 5260 nM and the “stoichiometry N” value turned out to be 1.11 ± 0.02. Moreover, in the assay with GABARAP R28K, the Ka stood at 1.9e+06 M⁻¹, the Kd came out at 540 nM and the “stoichiometry N” value was 1.05 ± 0.01.

B4: Biotinylated PLEKHM1-LIR V636I peptide (peptide, UniProt Q9Y4G2 632-640, looked up)
peptide: EDEWINVQY
modifications: also: biotinylated, position not given here
notes: also called V636X with X = I; I in position X1; source: synthetic peptide, bought: JPT, Germany
Consider B4, for which the binding result with 6xHis-tagged GABARAP is “binds”.
